Two molecules from article doi:10.1101/2020.07.14.203299 (bioRxiv, 2020) can be followed below.

One may read the Kd as a measure of binding affinity in units of concentration.

The labels stand for the following.
T1: GST-FliJ (purified) (Salmonella enterica serovar Typhimurium, UniProt P0A1K1 1-147)
T1 sequence (looked up): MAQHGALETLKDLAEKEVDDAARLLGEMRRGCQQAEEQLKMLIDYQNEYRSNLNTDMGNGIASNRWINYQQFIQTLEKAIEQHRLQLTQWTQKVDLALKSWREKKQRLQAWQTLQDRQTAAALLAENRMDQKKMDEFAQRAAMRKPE

B1: His-FlgN (natural protein, Salmonella enterica serovar Typhimurium, UniProt P0A1J7 1-140, looked up)
chain: MTRLSEILDQMTTVLNDLKTVMDAEQQQLSVGQINGSQLQRITEEKSSLLATLDYLEQQRRLEQNAQRSANDDIAERWQAITEKTQHLRDLNQHNGWLLEGQIERNQQALEVLKPHQEPTLYGADGQTSVSHRGGKKISI
B2: GST-FliJ(Δ13–24) (natural protein, Salmonella enterica serovar Typhimurium, UniProt P0A1K1 1-147, looked up)
chain: MAQHGALETLKDLGEMRRGCQQAEEQLKMLIDYQNEYRSNLNTDMGNGIASNRWINYQQFIQTLEKAIEQHRLQLTQWTQKVDLALKSWREKKQRLQAWQTLQDRQTAAALLAENRMDQKKMDEFAQRAAMRKPE

The target in one test is T1, GST-FliJ (purified). Briefly: SPR. A general note: SPR reads the build-up and loss of mass on a sensor chip optically.
In the test “His-FlgN” the target is B1. The test is described as follows: SPR.

For the molecule B1, the Kd with GST-FliJ (purified) was 27.4 ± 13 µM.
In the test with His-FlgN, B2 had a dissociation constant Kd of 7.74 ± 0.12 µM.
